The text below walks through data of the RNAGym collection of RNA variant scans (doi:10.7554/elife.90254).

First the molecules themselves.
B1: LINE1-full (parent)
chain: UACGUAGGUGGUUUUCCCCUGAUAGUGCUAAGGGGGCCUGGAAGUUUGGACUGGGCAGAGCUCAACACAGCGUGGCAAAGUGGCUGUGGCUAGACUGCCUCUCUGGAUUCCUCGUCACUCAGCAGGGCAUCUCUGAGAGAAAUGCC

Variants of B1 are the subject of this series. As to the kind of experiment: self-cleavage, relative activity (ratio to wild type); higher = more cleavage; in vitro, sequencing; the parent is a self-cleaving ribozyme.
Turning to UACGAAGGUGGUUUUCCCCUGAUAGUGCUAAGGGGGCCGGGAAGUUUGGACUGGGCAGAGCUCAACACAGCGUGGCAAAGUGGCUGUGGCUAGACUGCCUCUCUGGAUUCCUCGUCACUCAGCAGGGCAUCUCUGAGAGAAAUGCC [U5A U39G], the self-cleavage was found to be 0.22.

With UACGCAGGUGGUUUUCCCCUGAUAGUGCUAAGGGGGCCUGGAAGUUUGGACUGGGCAGAGCUCAACACAGCGUGGCAAAGUGGCUGUGGCUAGACUGCCUCUCUGGAUUCCUCGUCACUCAGCAGGGCAUCUCUGAGAGAAAUGCC [U5C], the self-cleavage turned out to be 1.06.

Take UACGAAGGUGGUUUUCCCCUGAUAGUGCUAAGGGGGCCUGGAAGUUUGGACUGGGCAGAGCUCAACACAGCGUGGCAAAGUGGCUGUGGCUAGACUGCCUCUCUGGAUUCCUCGUCACUCAGCAGGGCAUCACUGAGAGAAAUGCC [U5A U132A]: the self-cleavage is 1.38.

On to UACGCAGGUGGUUUUCCCCUGGUAGUGCUAAGGGGGCCUGGAAGUUUGGACUGGGCAGAGCUCAACACAGCGUGGCAAAGUGGCUGUGGCUAGACUGCCUCUCUGGAUUCCUCGUCACUCAGCAGGGCAUCUCUGAGAGAAAUGCC [U5C A22G], for which the self-cleavage came to 0.57.

In the case of UACGAAGGUGGUUUUCCCCUGAUAGUGCUAAGGGGGCCUGGAAGUUUGGACUGGGCAGAGCUCAACACAGCGUGGCAAAGUGGCUGUGGCUAGACUGCCUCUCUGGAUUCCUCGUCACUCAGCAGGGCAUCUCUGAGCGAAAUGCC [U5A A138C], the self-cleavage is 0.98.

Consider UACGAAGGUGGUUUUCCCCUGAUAGUGCUAAGGGGGCCUGGAAGUUUGGACUGGGCAGAGCUCAACACAGCGUGGCAAAGUGGCUGUGGCUAGACUGCCUCCCUGGAUUCCUCGUCACUCAGCAGGGCAUCUCUGAGAGAAAUGCC [U5A U102C], for which the self-cleavage was found to be 0.95.

UACGAAGGUGGUUUUCCCCUGAUAGUGCUAAGGGGGCCUGGAAGUUUGGACUGGGCAGAGCUCAACACAGCGUGGCAAAGUGGCUGUGGCUAGUCUGCCUCUCUGGAUUCCUCGUCACUCAGCAGGGCAUCUCUGAGAGAAAUGCC [U5A A94U]: the self-cleavage worked out at 0.32.

In the case of UACGAAGGUGGUUUUCCCCUGAUAGUGCUAAGGGGGCCUGGAAGUUUGGACUGGGCAGAGCUCAACACAGCGUGGCAAAGUGGCUGUGGCUAGGCUGCCUCUCUGGAUUCCUCGUCACUCAGCAGGGCAUCUCUGAGAGAAAUGCC [U5A A94G], the self-cleavage stood at 0.44.

With UACGAAGGUGGUUUUCCCCUGAUAGUGCUAAGGGGGCCUGGAAGUUUGGACUGGGCAGAGCUCAACACAGCGUGGCAAAGUGGCUGUGGCUAGACUGCCUCUCCGGAUUCCUCGUCACUCAGCAGGGCAUCUCUGAGAGAAAUGCC [U5A U104C], the self-cleavage was 1.1.

Regarding UACGAAGGUGGUUUUCCCCUGAUAGUGCUAAGGGGGCCUGGAAGUUUGGACUGGGCAGAGCUCAACACAGCGUGGCAAAGUGGCUGUGGCUAGACUGCCUCUCUGAAUUCCUCGUCACUCAGCAGGGCAUCUCUGAGAGAAAUGCC [U5A G106A], the self-cleavage came out at 1.14.

On to UACGAAGGUGGUUUUCCCCUGAUAGUGCUAAGGGGGCCUGGAAGUUUGGACUGGGCAGAGCUCAACACAGCGUGGCAAAGUGGCAGUGGCUAGACUGCCUCUCUGGAUUCCUCGUCACUCAGCAGGGCAUCUCUGAGAGAAAUGCC [U5A U85A], for which the self-cleavage was 0.14.

Consider UACGAAGGUGGUUUUCCCCUGAUAGUGCUAAGGGGGCCUGGAAGUUUGGACUGGGCAGAGCUCAACACAGCGCGGCAAAGUGGCUGUGGCUAGACUGCCUCUCUGGAUUCCUCGUCACUCAGCAGGGCAUCUCUGAGAGAAAUGCC [U5A U73C], for which the self-cleavage worked out at 1.41.

For UACGAAGGUGGUUUUCCCCUGAUAGUGCUAAGGGGGCCUGGAAGUUUGGACUGGGCAGAGCUCAACACAGCGAGGCAAAGUGGCUGUGGCUAGACUGCCUCUCUGGAUUCCUCGUCACUCAGCAGGGCAUCUCUGAGAGAAAUGCC [U5A U73A], the self-cleavage came to 2.19.

Consider UACGAAGGUGGUUUUCCCCUGAUAGUGCUAAGGGGGCCUGGAAGUUUGGACUGGGCAGAGCUCAACACAGCGGGGCAAAGUGGCUGUGGCUAGACUGCCUCUCUGGAUUCCUCGUCACUCAGCAGGGCAUCUCUGAGAGAAAUGCC [U5A U73G], for which the self-cleavage was determined as 0.48.

For UACGAAGGUGGUUUUCCCCUGAUAGUGCUAAGGGGGCCUGGAAGUUUGGACUAGGCAGAGCUCAACACAGCGUGGCAAAGUGGCUGUGGCUAGACUGCCUCUCUGGAUUCCUCGUCACUCAGCAGGGCAUCUCUGAGAGAAAUGCC [U5A G53A], the self-cleavage worked out at 0.79.

Consider UACGAAGGUGGUUUUCCCCUGAUAGUGCUAAGGGGGCCUGGAAGUUUGAACUGGGCAGAGCUCAACACAGCGUGGCAAAGUGGCUGUGGCUAGACUGCCUCUCUGGAUUCCUCGUCACUCAGCAGGGCAUCUCUGAGAGAAAUGCC [U5A G49A], for which the self-cleavage was found to be 0.5.

UACGAAGGUGGUUUUCCCCUGAUAGUGCUAAGGGGACCUGGAAGUUUGGACUGGGCAGAGCUCAACACAGCGUGGCAAAGUGGCUGUGGCUAGACUGCCUCUCUGGAUUCCUCGUCACUCAGCAGGGCAUCUCUGAGAGAAAUGCC [U5A G36A]: the self-cleavage turned out to be 1.19.

Regarding UACGCAGGUGGUUUUCCCCUGAUGGUGCUAAGGGGGCCUGGAAGUUUGGACUGGGCAGAGCUCAACACAGCGUGGCAAAGUGGCUGUGGCUAGACUGCCUCUCUGGAUUCCUCGUCACUCAGCAGGGCAUCUCUGAGAGAAAUGCC [U5C A24G], the self-cleavage worked out at 0.86.

UACGAAGGCGGUUUUCCCCUGAUAGUGCUAAGGGGGCCUGGAAGUUUGGACUGGGCAGAGCUCAACACAGCGUGGCAAAGUGGCUGUGGCUAGACUGCCUCUCUGGAUUCCUCGUCACUCAGCAGGGCAUCUCUGAGAGAAAUGCC [U5A U9C]: the self-cleavage is 0.81.

With UACGAAGGUGGUUUUCCCCUGAUAGUGCUAAGGGGGCCUGGAAGUUUGGACUGGGCAGAGCUCAACACAGCGUGGCAAAGUGGCUGUGGCUAGACUGCCUCUCUGGAUUCCUCGUCACUCAGCAGGGCGUCUCUGAGAGAAAUGCC [U5A A129G], the self-cleavage was 0.79.

UACGAAGGUGGUUUUCCCCUGAUAGUGCUAAGGGGGCCUGGAAGUUUGGACUGGGCAGAGCUCAACACAGCGUGGCAAAGUGGCUGUGGCUAGACUGCCUCUCUGGAUUCCUCGUCACUCAGCAGGGCAUCUCUGAGAGUAAUGCC [U5A A140U]: the self-cleavage worked out at 1.09.

For UACGAAGGUGGCUUUCCCCUGAUAGUGCUAAGGGGGCCUGGAAGUUUGGACUGGGCAGAGCUCAACACAGCGUGGCAAAGUGGCUGUGGCUAGACUGCCUCUCUGGAUUCCUCGUCACUCAGCAGGGCAUCUCUGAGAGAAAUGCC [U5A U12C], the self-cleavage was 0.74.

Consider UACGAAGGUGGGUUUCCCCUGAUAGUGCUAAGGGGGCCUGGAAGUUUGGACUGGGCAGAGCUCAACACAGCGUGGCAAAGUGGCUGUGGCUAGACUGCCUCUCUGGAUUCCUCGUCACUCAGCAGGGCAUCUCUGAGAGAAAUGCC [U5A U12G], for which the self-cleavage stood at 0.6.

Turning to UACGAAGGUGGUUUUCCCCUGAUAGUGCUAAGGGGGCCUGGAAGUUUGGACUGGGCAGAGCUCAACACAGCGUGGCAAAGUGGCUGUGGCUAGACUGCCUCUCUGGAUUCCUCGUCACUCAGCAGGGCAUCUCUGAGAGAAGUGCC [U5A A142G], the self-cleavage was 0.89.

UACGAAGGUGGUUUUCCCCUGAUAGUGCUAAGGGGGCCUGGAAGUUUGGACUGGGCAGAGCUCAACACAGCGUGGCAAAGUGGCUGUGGCUAGACUGCCUCUCUGGAUUCCUCGUCACUCAGCAGGGUAUCUCUGAGAGAAAUGCC [U5A C128U]: the self-cleavage worked out at 1.06.

With UACGAAGGUGGUUUUCCCCUGAUAGUGCUAAGGGGGCCUGGAAGUUUGGACUGGGCAGAGCUCAACACAGCGUGGCAAAGCGGCUGUGGCUAGACUGCCUCUCUGGAUUCCUCGUCACUCAGCAGGGCAUCUCUGAGAGAAAUGCC [U5A U81C], the self-cleavage came to 0.99.

As to UACGAAGGUGGUUUUCCCCUGAUAGUGCUAAGGGGGCCUGGAAGGUUGGACUGGGCAGAGCUCAACACAGCGUGGCAAAGUGGCUGUGGCUAGACUGCCUCUCUGGAUUCCUCGUCACUCAGCAGGGCAUCUCUGAGAGAAAUGCC [U5A U45G], the self-cleavage stood at 0.71.

In the case of UACGAAGGUGGUUUUCCCCUGAUAGUGCUAAGGGGGCCUGGAAGCUUGGACUGGGCAGAGCUCAACACAGCGUGGCAAAGUGGCUGUGGCUAGACUGCCUCUCUGGAUUCCUCGUCACUCAGCAGGGCAUCUCUGAGAGAAAUGCC [U5A U45C], the self-cleavage amounted to 1.

Consider UACGAAGGUGGUUUUCCCCUGAUAGUGCUAAGGGGGCCUGGAAGUUUGGACUGGGCAGAGCUCAACACGGCGUGGCAAAGUGGCUGUGGCUAGACUGCCUCUCUGGAUUCCUCGUCACUCAGCAGGGCAUCUCUGAGAGAAAUGCC [U5A A69G], for which the self-cleavage was 0.45.

As to UACGAAGGUGGUUUUCCCCUGAUAGUGCUAAGGGGGCCUGGAAGUUUGGACUGGGCAGAGCUCAACACUGCGUGGCAAAGUGGCUGUGGCUAGACUGCCUCUCUGGAUUCCUCGUCACUCAGCAGGGCAUCUCUGAGAGAAAUGCC [U5A A69U], the self-cleavage stood at 0.09.

On to UACGAAGGUGGUUUUCCCCUGAUAGUGCUAAGGGGGCCUGGAAGUUUGGACUGGGCAGAGCUCAACACAGCGUGGCAAAGUGGCUGUGGCUAGAUUGCCUCUCUGGAUUCCUCGUCACUCAGCAGGGCAUCUCUGAGAGAAAUGCC [U5A C95U], for which the self-cleavage was determined as 0.14.

Consider UACGAAGGUGGUUUUCCCCUGAUAGUGCUAAGGGGGCGUGGAAGUUUGGACUGGGCAGAGCUCAACACAGCGUGGCAAAGUGGCUGUGGCUAGACUGCCUCUCUGGAUUCCUCGUCACUCAGCAGGGCAUCUCUGAGAGAAAUGCC [U5A C38G], for which the self-cleavage turned out to be 0.71.

As to UACGAAGGUGGUUUUCCCCUGAUAGUGCAAAGGGGGCCUGGAAGUUUGGACUGGGCAGAGCUCAACACAGCGUGGCAAAGUGGCUGUGGCUAGACUGCCUCUCUGGAUUCCUCGUCACUCAGCAGGGCAUCUCUGAGAGAAAUGCC [U5A U29A], the self-cleavage came out at 1.16.

Turning to UACGAAGGUGGUUUUCCCCUGAUAGUGCUAAGGGGGCCUGGAAGUUUGGACUGGGCAGAGCUCAACACAGCGUGGCGAAGUGGCUGUGGCUAGACUGCCUCUCUGGAUUCCUCGUCACUCAGCAGGGCAUCUCUGAGAGAAAUGCC [U5A A77G], the self-cleavage was 2.07.

As to UACGAAGGUGGUUUUCCCCUGAUAGUGCUAAGGGGGCCUGGAAGUUUGGACUGGGCAGAGCUCAACACAGCGUGGCAAAGUGGCUGUGGCUAGACUGCCUCUCUGGAUUCCUCGUCACUCAGCAGGGCAUCUCUGGGAGAAAUGCC [U5A A136G], the self-cleavage was 1.14.

Take UACGAAGGUGGUUUUCCCCUGAUAGUGCUAAGGGGGCCUGGAAGUUUGGACUGGGCAGAGCUCAACACAGCGUGGCAAAGUGGCUGUGGCUAGACUGCCUCUCUGGAUUCCUCGUCACUCAGCAGGGCAUCUCUGUGAGAAAUGCC [U5A A136U]: the self-cleavage was 1.11.

On to UACGAAGGUGGUUUUCCCCUGAUAGUGCUAAGGGGGCCUGGAAGUUUGGACUGGGCAGAGCUCAACACAGCGUGGCAAAGUGGCUGUGGCUAGACUGCCUCUCUGGAUUCCUCGUCACCCAGCAGGGCAUCUCUGAGAGAAAUGCC [U5A U119C], for which the self-cleavage turned out to be 0.9.

As to UACGAAGGUGGUUUUCCCCUGAUAGUGCUAAGGGGGCCUGGAAGUUUGGACUGGGCAGAGCUCAACACAGCGUGGCAAAGUGGCUGUGGCUAGACUGCCUCUCUGGAUUCCUCGUCACACAGCAGGGCAUCUCUGAGAGAAAUGCC [U5A U119A], the self-cleavage came out at 1.05.

In the case of UACGAAGGUGGUUUUCCCCUGAUAGUGCUAAGGGGGCCUGGAAGUUUGGACUGGGCAGAGCACAACACAGCGUGGCAAAGUGGCUGUGGCUAGACUGCCUCUCUGGAUUCCUCGUCACUCAGCAGGGCAUCUCUGAGAGAAAUGCC [U5A U62A], the self-cleavage came to 0.
